Results reported in PMC6166021.

System: T1, NtcA (His6-tagged) (Nostoc sp. PCC 7120), ORF:1390dea6
T1 sequence: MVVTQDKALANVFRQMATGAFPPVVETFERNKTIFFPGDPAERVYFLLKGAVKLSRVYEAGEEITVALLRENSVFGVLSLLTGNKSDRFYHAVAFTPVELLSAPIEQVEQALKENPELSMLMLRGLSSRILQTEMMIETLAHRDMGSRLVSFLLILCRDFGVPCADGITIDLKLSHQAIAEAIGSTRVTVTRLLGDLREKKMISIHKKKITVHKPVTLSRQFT
Test: EMSA
Conditions: EMSA as in Muro-Pastor et al. 1999; buffer, salt, pH and temperature not given in the material

Sequence | binding
ATCGATACTCTCGCAACAACGAAAGAATAGTAGTTTCATCAACCTCTAAACCTTTATATCTCCATACCCCTACACCCTAAACCCATATTTTGAGGGTATAGCGTAAGAACCCTACACCCGTCAGCCTCTTCTCCCCCCATTGACATTTTTGAAATATTCTGAAAGATAGAGGCTGATTACCTCCGGGTATATCTTTTTTCGGTAAATTTTTTCAAAAAAACTGTGTTGCCTGTATGAATATTGTTAAGAAAAGTTGCCCGTTGCATTTTGGGAATACGCAGCCGGGTTTTAACTC (double strand) [nsrR1 promoter fragment, mutated NtcA site (TAC to ATG)] | no binding
ATCGATACTCTCGCAACAACGAAAGAATAGTAGTTTCATCAACCTCTAAACCTTTATATCTCCATACCCCTACACCCTAAACCCATATTTTGAGGGTATAGCGTAAGAACCCTACACCCGTCAGCCTCTTCTCCCCCCATTGACATTTTTGAAATATTCTGAAAGATAGAGGCTGATTACCTCCGGGTATATCTTTTTTCGGTAAATTTTTTCAAAAAAACTGTGTTGCCTGTTACAATATTGTTAAGAAAAGTTGCCCGTTGCATTTTGGGAATACGCAGCCGGGTTTTAACTC (double strand) [nsrR1 promoter fragment WT (-239 to +50)] | binds
